Data published in the supplement of paper PMC12042874.
± gives the uncertainty stated by the source.

assay: amyloid nucleation score (Sup35N fusion, yeast selection) (log enrichment); library NNK2; higher = more nucleation; inactive = no reads after selection
In short: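 The nucleation score is the log enrichment of output over input reads, calculated with DiMSum and centred on the mode score of non-aggregating sequences. Sequences with under 100 input reads were excluded. Reads came from Illumina sequencing of plasmid inserts from psi-negative yeast expressing Sup35N fused to peptides of 20 random codons, induced 24 hours with 100 μM copper sulfate and grown 7 days at 30°C without adenine and uracil.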

Point of comparison: VNRVTRPNECYACQYMFGRW, amyloid nucleation score 1.19 ± 0.18. Against it:
- TSPSYVTSCYRFVKEIDHWK — lower, -1.29 ± 1.1
- TSRWDWIINSVRHIYWFSCF — higher, 4.26 ± 0.12
- TSVCM — higher, 3.89 ± 0.1
- TSWSLVVVKVDIWPNQSVWV — lower, -0.391 ± 0.55
- TSYKVVLVTYRT — higher, 5.81 ± 0.074
- TSYRVRGVGSSELCGSLKLR — lower, 0.627 ± 0.36
- TTDGNQAISVKLMTYLTRPL — lower, -0.187 ± 0.41
- TTEYG — lower, 0.239 ± 0.5
- TTFIRLVIITPWV — higher, 2.75 ± 0.15
- TTIFYKPLQCLLGLFFYP — lower, -0.623 ± 1
- TTMWYTS — lower, -0.837 ± 1.1
- TTQDATLIVNSCNTFTLQVY — lower, -0.389 ± 0.29
- TTTESMRIWPTNRFKRCTLQ — lower, 0.582 ± 0.2
- TVAKSLVYLSVCQVAA — within error, 0.035 ± 1
- TVAMSGASQYDEYVSESMMT — lower, 0.061 ± 0.27
- TVFNR — lower, 0.236 ± 0.3
- TVFPMREIEVLFDSIWYGFN — higher, 1.71 ± 0.096
- TVKNRA — within error, 0.694 ± 0.51
- TVLFKGLRYRRNFKFGTQTT — lower, -0.056 ± 0.76
- TVMLFIVHLPCDRTFYL — within error, 0.682 ± 0.45
- TVSLTWEKYNEQIHA — within error, 0.399 ± 0.74
- TVYEMGASMLVKILHWKVLN — lower, -0.801 ± 0.38
- TVYSGILKSY — lower, -0.574 ± 1
- TWDVNVLHVYLSMSSTTLHF — lower, -0.46 ± 0.45
- TWRLACRFLL — lower, -0.12 ± 0.56
- TWSHTPNALWMDALRSTLQA — within error, 1.05 ± 0.38
- TYHIYFVCLKSLWRFGEDCL — higher, 4.37 ± 0.055
- TYHYLMYLLVRRNMGDVNGA — higher, 3.49 ± 0.097
- TYKEYCGE — lower, -0.693 ± 0.78
- TYLMSFICNNLRVDIANINR — lower, 0.141 ± 0.3
- TYLNLLSNAMNVAWFS — higher, 2.83 ± 0.19
- TYLVQWMCCRWMPMHFRIMT — lower, -0.369 ± 0.79
- TYLWSLGYVSFQL — lower, -0.206 ± 0.79
- TYMSYFSSTWKILVGAHWRR — higher, 1.85 ± 0.18
- TYPHVLTP — lower, -0.022 ± 0.37
- VACETRRRA — higher, 4.948 ± 0.04
- VACHVR — within error, 0.975 ± 0.4
- VAEVKRLHIYWRAPSFRSAN — lower, -0.596 ± 0.79
- VAEYGLENDWFLHWQICMNS — lower, -0.618 ± 0.48
- VAFKSTLQVLVANKFG — lower, -0.627 ± 1
- VAGSS — lower, -0.101 ± 0.29
- VALVSGVNNTKDMSRAPNRV — lower, -0.19 ± 0.36
- VATLRSRHFDEHSHVVFSSS — lower, 0.236 ± 0.29
- VCDRFWFSLDLWLFIRTFRF — lower, -0.679 ± 1.1
- VCDVLYKFGYSKN — higher, 4.89 ± 0.058
- VCGVNV — lower, -0.363 ± 1.1
- VCSNCNMDVTSYQASCKAYL — within error, 0.783 ± 0.53
- VCSTLVSFHHQRVKKVDAV — lower, -1.12 ± 0.78
- VCTWYRVAIDRRINIS — higher, 1.96 ± 0.066
- VDCWMSISCQDYDSKFKVKS — within error, 0.242 ± 0.77
- VDHLFIRIHSVMIPAL — lower, -0.447 ± 1.1
- VDIEDGLG — lower, 0.13 ± 0.22
- VDITRWIDVMVYF — lower, -0.19 ± 0.62
- VDIWVWVG — within error, 0.456 ± 0.6
- VDLGMPSLWRSDGASPGGFF — lower, 0.277 ± 0.49
- VDRFFLEARCLELTSQ — lower, 0.34 ± 0.5
- VDRRNAKYWRGRKSTWVRGV — within error, 1.3 ± 0.26
- VDRWDGSVHCSIGGNFYCSG — lower, -0.545 ± 0.54
- VEFLWGFWWYKPQRKSVGST — lower, -1.54 ± 0.75
- VEFVVPKI — lower, -0.586 ± 1.1
- VEINNNE — lower, -0.065 ± 0.56
- VEMRLGRDEIFNRHQKGIYA — higher, 2.02 ± 0.36
- VEREDVHKGRRFAQACNNLV — lower, 0.495 ± 0.41
- VETYT — lower, 0.022 ± 0.65
- VEYINWRFIRNTYSVE — higher, 2.14 ± 0.12
- VFAMDYDVCDNSTCHKGV — lower, -0.057 ± 0.21
- VFAYYIDRARSSRVPCTVAN — higher, 4.28 ± 0.12
- VFDAKTFGGDTVFVAAEAHS — lower, -0.669 ± 1
- VFDVISI — lower, -0.064 ± 0.76
- VFEAIMVYSFRRYFPPYGAF — higher, 2.62 ± 0.098
- VFEYFRCPYIHNLLFFSAWL — higher, 1.9 ± 0.19
- VFFGPTFCFVPYVNMRCLVP — higher, 8.082 ± 0.059
- VFFLFYTMWRLVYFEPNMKS — lower, -1.25 ± 0.62
- VFLSGINH — lower, -1.18 ± 1.1
- VFQIHYMVGNVVCTWSWPNV — higher, 4.27 ± 0.056
- VFRYAGRCRNGIVGLYGATM — higher, 4.677 ± 0.046
- VFSNWVNVVWS — higher, 5.172 ± 0.039
- VFSSFWVYKLYEFEASSNVR — lower, -0.371 ± 0.45
- VFTCGVVPYPYKNTLKYKCF — lower, -0.319 ± 0.4
- VFTSFVG — lower, 0.536 ± 0.46
- VFVEVDVTGFNFRLE — lower, -1.18 ± 0.48
- VFYCKRVAMDNTSCRNSSYL — lower, -0.536 ± 0.31
- VGFISDNYYWYNPKVNGIWV — lower, -0.834 ± 0.27
- VGFRRVTNMDRCSFSLCCCW — higher, 4.56 ± 0.064
- VGHSIEALELTPIVVRYTYL — lower, -0.341 ± 0.45
- VGLVMHGIVLCLMLSHMSWR — lower, 0.354 ± 0.41
- VGRGASRNFSCFSLVKFREK — higher, 3 ± 0.062
- VGRQSCFVYMWCWTYHMWGL — within error, 1.37 ± 0.32
- VGRRSSKYESAELRVGSEVV — higher, 1.71 ± 0.12
- VGSSRFLRDGVTRGLSMSGS — lower, -1.07 ± 0.41
- VGVFNFAGTTTSVGVNVSYT — higher, 2.78 ± 0.1
- VGVLNSIKPYLCVSAKRKCV — lower, 0.09 ± 0.74
- VGVLSEDIYCSAQPYLGRSG — lower, 0.331 ± 0.4
- VGVVGYVETSLLGLRRCG — lower, -0.976 ± 0.54
- VGVVLFFFVLCYWVKT — lower, -0.79 ± 0.41
- VHCCFGACGCSSWRLNLLAS — lower, 0.092 ± 0.49
- VHIMNSLVGSIVLGSSRRLS — higher, 5.77 ± 0.062
- VHRLC — within error, 1.38 ± 0.47
- VHSGLYAKCVRLYMQNFPHL — lower, 0.192 ± 0.79
- VHTAFRETLYRRDKMLCGMR — lower, -0.709 ± 0.63
- VIAVCLVLVSSDVKIGTRMG — higher, 1.84 ± 0.16
- VIGAGCIEKQRTVEAGGCRG — within error, 1.23 ± 0.35
- VIGCAQWFYFADMRGMPRNQ — higher, 4.95 ± 0.076
- VILAIGNFSRI — higher, 3.08 ± 0.081
- VILVSVASINSRCVIGFSKF — higher, 4.64 ± 0.07
- VILYNGFDLSGSD — lower, 0.286 ± 0.44
- VISHRKPFE — lower, -0.283 ± 1
- VITGYCA — higher, 2.48 ± 0.094
- VITSYVRRQCVKFCCGARCR — higher, 8.347 ± 0.054
- VIWIRTIKMHACTYVQQDVL — within error, 0.806 ± 0.45
- VIYRSNLASRGMNHAVFSKR — lower, -0.92 ± 0.28
- VKGVWWYRIMS — within error, 0.785 ± 0.51
- VKNFYNSSINGLGLYMNMRF — higher, 2.43 ± 0.068
- VKTKAVTRVMIP — lower, 0.589 ± 0.35
- VKWTTVVD — within error, 0.963 ± 0.26
- VKWTVNEVYGCYYCTGSVYA — higher, 6.154 ± 0.042
- VKYFSYDIVGVGREYYFKTT — lower, -0.555 ± 0.76
- VLAHNSGWNGTKETYCMSNG — lower, -0.436 ± 0.54
- VLCCPSKISTALKCWVGEAC — lower, 0.233 ± 0.62
- VLDFQTSYMLPEFVRPGVGY — lower, 0.216 ± 0.25
- VLESYFDTYM — lower, -2 ± 0.76
- VLHRLRSLLERFLFYVDLIS — lower, 0.355 ± 0.65
- VLITKYSFTRLEFTIKVTSS — lower, 0.386 ± 0.57
- VLMKGRDPSVSGLKIEYLGN — lower, 0.193 ± 0.19
- VLNEDVRGKANTVVSSMG — lower, 0.413 ± 0.24
- VLNRGGETAYTSMFDVYYI — lower, -0.097 ± 0.63
- VLNRLERASSVREQGIIRGR — lower, 0.252 ± 0.29
- VLPMVRMSINIVVGCWSQKL — higher, 3.79 ± 0.081
- VLPTEYSGFFSTRQLPSLDS — lower, 0.137 ± 0.79
- VLPYSRVSTS — lower, 0.007 ± 0.28
- VLREDSIELWPDGTVGGRTG — within error, 1.35 ± 0.37
- VLSLLMPVVRIVWKFN — lower, -0.084 ± 0.76
- VLSLSVDFSCKRSCIMDTQV — higher, 3.95 ± 0.087
- VLSNLIFYLSPFCIMHLMR — higher, 3.27 ± 0.13
- VLTALVYVEITF — higher, 5.41 ± 0.066
- VLVGVEWFV — lower, 0.318 ± 0.38
- VLVSGYDLVVVDRVYLGRMF — higher, 2.56 ± 0.085
- VLVSLFLPLENYFG — lower, -0.549 ± 1
- VLWIGFYLNLYLPYLCNHVD — higher, 3.37 ± 0.076
- VLYSFSGVTPWHKYPCNCV — lower, 0.256 ± 0.46
- VMFEFNLAGSDSSDKAAMVT — lower, 0.014 ± 0.49
- VMIIFLDNKRYGKAPNCGRM — higher, 7.263 ± 0.07
- VMLGHYTVLFGVKVRECREG — higher, 1.7 ± 0.19
- VMRMWRVSMRF — higher, 6.068 ± 0.032
- VMTARHVLWSNLRVRPRGHD — within error, 0.867 ± 0.67
- VMYYEGG — lower, -0.561 ± 0.63
- VNAPGTSYGYYVLNVQWGGW — within error, 1.12 ± 0.26
- VNLWCRYDWGVPGDSWGRDG — higher, 2.92 ± 0.078
- VNRDRAQLWVACITCRCNFR — higher, 8.986 ± 0.049
- VNRSTELHFIVMREMVWLKS — lower, -0.287 ± 0.62
- VNSMAMLCLRICIGTHQMCG — higher, 5.03 ± 0.054
- VNSNINFMEGYGCFKKIVNF — lower, -1.36 ± 0.75
- VNVCWLKSATPNSCVDLVNI — within error, 0.946 ± 0.6
- VNVDWCLLSVLVFNLETNPR — higher, 6.699 ± 0.032
- VNVYLFYYYPHSSHCYIF — higher, 7.658 ± 0.056
- VNWFRLWRTSQLLGRMMLCL — lower, 0.427 ± 0.56
- VNWLCRSWRSNRSLEG — higher, 4.33 ± 0.087

In the case of TVGGNQTLSKLFWSFQGMFW, the amyloid nucleation score is reported as “inactive”.
In the case of TVNFYKRWSDCQLMSFIVRV, the amyloid nucleation score is reported as “inactive”.
In the case of TVYIYSLVSRNKEVMFFTD, the amyloid nucleation score is reported as “inactive”.
With TWKTSLS the amyloid nucleation score was “inactive”.
With VFDSPLHQWFYIKLIMLSTL the amyloid nucleation score was “inactive”.
In the case of VFGSVADMHM, the amyloid nucleation score is reported as “inactive”.
For VFKFMNMTYEYRAGKGITVH, the amyloid nucleation score was “inactive”.
With VFWHMSIIHIVCRIILSKDW the amyloid nucleation score was “inactive”.
In the case of VGDWVQQVVFTRRSTSSRRV, the amyloid nucleation score is reported as “inactive”.
For VGKRIVHIFCVEFGSLMGC, the amyloid nucleation score was “inactive”.
For VLMYIWDLVGGSLSFKKVLF, the amyloid nucleation score was “inactive”.
In the case of VMFWLPPTSGNSWSDCTHKI, the amyloid nucleation score is reported as “inactive”.
With VNIDGRDRDNFVNGRSIMLR the amyloid nucleation score was “inactive”.
